Test results from patent US6890900B2, “Methods for treating or preventing diseases of the oral cavity” (Campina B.V., priority 2001, dated 2005).

Tests used:
[1] = tested on: Pseudomonas aeruginosa ATCC #27853; experiment: LF/GMP assay, viable plate count (pour plate) of broth culture; format: cell-based; parameters: key to MIBC: NCF: No Effective Concentration Found; details: for Colony Counts: viable plate count
Protocol: Bacterial strains used in this study were Pseudomonas aeruginosa ATCC #27853, Streptococcus mutans ATCC #33535, Streptococcus pyogenes ATCC #19615, and Actinobacillus haemophilus ATCC #43717 and an oral swab from a healthy adult. Bacteria were grown on blood/BHT media (Brain Heart Infusion Agar with protease peptone, sodium chloride, glucose, di-sodium phosphate, and agar, Oxoid, Hampshire England, Sheep's Blood) in the presence of 5% CO2 at 35° C. Bacteria were harvested by swabbing inoculated growth plates after 24 hours and diluting the colonies in 9 ml of deionized water (DI water) until a suspension of 0.5 McFarland Turbidity Standard was reached using the nephelometer (McFarland Turbidity Meter). The 0.5 McFarland value is approximately equivalent to 1.0×10^8 organisms. One ml of the appropriate bacterial dilution was taken using a sterile pipette and introduced into 8 ml of sterilized BHI broth. (Preparation of BHI broth: 37 g+1,000 ml DI water, Difco Laboratories. By pipette, 9 ml of broth was placed into medium test tubes as means of a control and 8 ml test tubes were prepared for the concentration tests).
This solution was filtered through a 0.45 μm filter. […] Example for calculating 2,500 ppm dilution (1,000 ppm=0.1%): [formula] [formula] [formula] […]
One mL of each bacterial strain, plus one mL of sialic acid solution (1,000 ppm) were inoculated into test tubes filled with 8 mL of BHI broth. Each test tube was vortexed, incubated for 24 hours at 35° C. with 5% CO2, and then pour plated in BHI agar to obtain a plate count.
This technique was used to determine the density of living (viable) cells in inoculated broth cultures. It involves plating a bacterial sample and counting the resulting colonies after incubation. A serial dilution of the original broth was taken prior to plating. The serial dilution is necessary to reduce the density of organisms in order to create countable plates. Only plates containing between 25 and 250 colonies are considered countable. Cell densities are traditionally recorded as CFU (colony forming unit)/ml. By convention, when 1.0 ml is inoculated onto a plate, the dilution factor (DF) is recorded as tenfold greater. Formula: [formula]
The assays required the use of a pour plate technique. The pour plate technique adds a step to the conventional serial dilution. The 1 ml of dilution is added to a warm emulsion of dilute nutrient (BHI) agar to produce an agar overlay in the petri plates. After incubation, the bacterial growth covers the entire plate but individual cellular movement has been restricted by the soft agar overlay. Each colony formed is assumed to have originated from a single CFU. The plates were gently mixed, inverted, and incubated for 18-24 hour at 35° C. […]

[2] = tested on: oral culture (oral swab from a healthy adult, oral flora); experiment: as above; format: cell-based, Streptococcus salivaris; parameters: key to MIBC: NCF: No Effective Concentration Found; details: 35° C.; for Colony Counts: viable plate count
Protocol: Bacterial strains used in this study were Pseudomonas aeruginosa ATCC #27853, Streptococcus mutans ATCC #33535, Streptococcus pyogenes ATCC #19615, and Actinobacillus haemophilus ATCC #43717 and an oral swab from a healthy adult. Bacteria were grown on blood/BHT media (Brain Heart Infusion Agar with protease peptone, sodium chloride, glucose, di-sodium phosphate, and agar, Oxoid, Hampshire England, Sheep's Blood) in the presence of 5% CO2 at 35° C. […] The 0.5 McFarland value is approximately equivalent to 1.0×10^8 organisms. One ml of the appropriate bacterial dilution was taken using a sterile pipette and introduced into 8 ml of sterilized BHI broth. […] By pipette, 9 ml of broth was placed into medium test tubes as means of a control and 8 ml test tubes were prepared for the concentration tests). […] This solution was filtered through a 0.45 μm filter. […] Example for calculating 2,500 ppm dilution (1,000 ppm=0.1%): [formula] [formula] [formula] To study the kinetics of LF/GMP binding, each strain of bacteria was taken separately with a sterile pipette and placed into an 8 ml BHI broth test tube, vortexed, and incubated in the presence of 1 ml of LF or GMP for 18-24 hours at 35° C. with 5% CO2. In the combination procedure, 0.5 ml of both LF and […] were taken as 1 ml inoculations. This technique was used to determine the density of living (viable) cells in inoculated broth cultures. It involves plating a bacterial sample and counting the resulting colonies after incubation. A serial dilution of the original broth was taken prior to plating. The serial dilution is necessary to reduce the density of organisms in order to create countable plates. Only plates containing between 25 and 250 colonies are considered countable. Cell densities are traditionally recorded as CFU (colony forming unit)/ml. […] Formula: [formula] The assays required the use of a pour plate technique. The pour plate technique adds a step to the conventional serial dilution. The 1 ml of dilution is added to a warm emulsion of dilute nutrient (BHI) agar to produce an agar overlay in the petri plates. After incubation, the bacterial growth covers the entire plate but individual cellular movement has been restricted by the soft agar overlay. Each colony formed is assumed to have originated from a single CFU. The plates were gently mixed, inverted, and incubated for 18-24 hour at 35° C. There is a mixture of microorganisms obtained in “normal oral flora.” Testing a swab taken from a healthy mouth cavity aided in the identification of the most common mouth flora. Experiments were conducted with the mouth culture to determine the antimicrobial effects of LF and GMP. Oral cultures were grown on BHI agar with added sheep's blood for 24 hours at 35° C. 5% CO2. […] These plates were incubated for another 24 hours. Here, isolated colonies were taken and were streaked on a BHI/Blood plate for growth of a pure culture. Streaking a plate produces isolated growth of microbial species in a mixed culture sample. Once isolated, pure cultures can be tested for species identification. The isolated colonies were Gram-stained to distinguish between Gram-positive and Gram-negative cells. The Gram stain is a differential stain in which a decolorization step occurs between the application of two basic stains. The next step was a catalase test to identify the organisms that produce the enzyme catalase. It was used to differentiate members of the catalase-positive Micrococcaceae and Staphylococci from the catalase-negative Streptococcaceae. Hydrogen peroxide was added to the bacteria and observed for a reaction (evidence of bubbles being formed). In the oral culture, three isolated colonies were tested for identification from a swabbed mouth cavity. […] This negative-catalase reaction was a confirmation of a streptococcus species. The API 20 Strep test was done on all three pure cultures to identify each species. The numbers were the results of the API 20 test. […]

B1: LF: Bovine lactoferrin, iron-binding glycoprotein purified from milk, provided by DMV International (protein, UniProt P24627 20-708, looked up)
Lactotransferrin: APRKNVRWCTISQPEWFKCRRWQWRMKKLGAPSITCVRRAFALECIRAIAEKKADAVTLDGGMVFEAGRDPYKLRPVAAEIYGTKESPQTHYYAVAVVKKGSNFQLDQLQGRKSCHTGLGRSAGWIIPMGILRPYLSWTESLEPLQGAVAKFFSASCVPCIDRQAYPNLCQLCKGEGENQCACSSREPYFGYSGAFKCLQDGAGDVAFVKETTVFENLPEKADRDQYELLCLNNSRAPVDAFKECHLAQVPSHAVVARSVDGKEDLIWKLLSKAQEKFGKNKSRSFQLFGSPPGQRDLLFKDSALGFLRIPSKVDSALYLGSRYLTTLKNLRETAEEVKARYTRVVWCAVGPEEQKKCQQWSQQSGQNVTCATASTTDDCIVLVLKGEADALNLDGGYIYTAGKCGLVPVLAENRKSSKHSSLDCVLRPTEGYLAVAVVKKANEGLTWNSLKDKKSCHTAVDRTAGWNIPMGLIVNQTGSCAFDEFFSQSCAPGADPKSRLCALCAGDDQGLDKCVPNSKEKYYGYTGAFRCLAEDVGDVAFVKNDTVWENTNGESTADWAKNLNREDFRLLCLDGTRKPVTEAQSCHLAVAPNHAVVSRSDRAAHVKQVLLHQQALFGKNGKNCPDKFCLFKSETKNLLFNDNTECLAKLGGRPTYEEYLGTEYVTAIANLKKCSTSPLLEACAFLTR
Colony Counts ([1]; 50 ppm, 35° C., 24 h): 4.6 × 10^8
Colony Counts ([1]; 100 ppm, 35° C., 24 h): 3.6 × 10^8
Colony Counts ([1]; 250 ppm, 35° C., 24 h): 2.6 × 10^8
Colony Counts ([1]; 1,000 ppm, 35° C., 24 h): 3.2 × 10^8
Colony Counts ([1]; 3,000 ppm, 35° C., 24 h): 1.2 × 10^8
Total Log Reduction ([1]; Lactoferrin/GMP 250/0 ppm (LF alone), 23° C. (room temperature)): 1 log
Total Log Reduction ([1]; Lactoferrin/GMP 250/0 ppm (LF alone), 35° C.): 0 log
Total Log Reduction ([1]; Lactoferrin/GMP 3,000/0 ppm (LF alone), 23° C. (room temperature)): 0 log
Total Log Reduction ([1]; Lactoferrin/GMP 3,000/0 ppm (LF alone), 35° C.): 0 log
# Log Reductions ([1]; at the MIBC, vs control, 35° C.): 0 log
MIBC ([1]; single agent, 35° C., 24 h, 5% CO2): NCF
Colony Counts ([2]; 50 ppm, 24 h): 4.8 × 10^8
Colony Counts ([2]; 100 ppm, 24 h): 4.2 × 10^8
Colony Counts ([2]; 250 ppm, 24 h): 4.3 × 10^8
Colony Counts ([2]; 500 ppm, 24 h): 4.0 × 10^8
Colony Counts ([2]; 1,000 ppm, 24 h): 3.9 × 10^8
Colony Counts ([2]; 3,000 ppm, 24 h): 3.4 × 10^8
Total Log Reduction ([2]; Lactoferrin/GMP 250/0 ppm (LF alone)): 0 log
Total Log Reduction ([2]; Lactoferrin/GMP 3,000/0 ppm (LF alone)): 0 log
# Log Reductions ([2]; at the MIBC, vs control): 0 log
effect on growth (in words) ([2]; single agent, any tested concentration): not effected
MIBC ([2]; single agent, 24 h, 5% CO2): NCF
